Blank lines part the entries; values can stand above or below the binder they belong to. Ends that are not written are not given here. * marks the point of attachment. 5FAM = O=C1OC2(c3ccc(O)cc3Oc3cc(O)ccc32)c2ccc(C(=O)*)cc21
B3: fluorescein labeled SRC-1 peptide (5-FAM-[residues removed]), residues 676-700 (peptide)
peptide: 5FAM-CPSSHSSLTERHKILHRLLQEGSPS

Columns and labels:
[1] = target: B3; assay: fluorescence polarisation
[2] = target: T1, RXRα LBD (residues 227-462), the LBD part of the crystallised fusion chain (human, UniProt P19793 227-462); assay: crystal structure
T1 sequence (looked up): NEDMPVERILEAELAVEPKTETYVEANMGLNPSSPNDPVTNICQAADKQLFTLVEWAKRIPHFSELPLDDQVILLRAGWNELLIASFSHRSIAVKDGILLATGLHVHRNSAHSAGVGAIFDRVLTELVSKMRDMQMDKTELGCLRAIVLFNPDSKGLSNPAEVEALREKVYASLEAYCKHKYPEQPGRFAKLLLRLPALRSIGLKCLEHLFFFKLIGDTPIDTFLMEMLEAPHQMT

[3] = target: T2, PXR LBD (residues 130-434), the LBD part of the crystallised fusion chain (human, UniProt O75469 130-434); assay: crystal structure
T2 sequence (looked up): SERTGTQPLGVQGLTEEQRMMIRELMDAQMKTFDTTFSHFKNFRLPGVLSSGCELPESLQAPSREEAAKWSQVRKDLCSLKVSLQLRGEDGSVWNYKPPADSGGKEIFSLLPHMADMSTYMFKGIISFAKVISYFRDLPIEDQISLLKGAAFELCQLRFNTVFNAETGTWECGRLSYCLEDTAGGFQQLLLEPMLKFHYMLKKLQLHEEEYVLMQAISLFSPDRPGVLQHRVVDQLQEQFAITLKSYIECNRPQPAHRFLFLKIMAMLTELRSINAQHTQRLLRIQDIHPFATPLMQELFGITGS

[4] = target: T3, wild-type PXR LBD without the fused coactivator peptide (human, UniProt O75469 130-434); assay: fluorescence polarisation
T3 sequence (looked up): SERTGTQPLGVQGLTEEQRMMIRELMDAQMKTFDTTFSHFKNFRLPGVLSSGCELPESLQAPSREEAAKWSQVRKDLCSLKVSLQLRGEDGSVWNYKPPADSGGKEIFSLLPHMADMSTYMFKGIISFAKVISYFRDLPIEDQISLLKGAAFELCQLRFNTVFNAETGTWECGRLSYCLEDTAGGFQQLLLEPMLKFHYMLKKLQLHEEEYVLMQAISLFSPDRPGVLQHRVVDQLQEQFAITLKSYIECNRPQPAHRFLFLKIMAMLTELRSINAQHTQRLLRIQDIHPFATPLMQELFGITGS

[5] = target: T4, wild-type RXRα LBD without the fused coactivator peptide (human, UniProt P19793 227-462); assay: fluorescence polarisation
T4 sequence (looked up): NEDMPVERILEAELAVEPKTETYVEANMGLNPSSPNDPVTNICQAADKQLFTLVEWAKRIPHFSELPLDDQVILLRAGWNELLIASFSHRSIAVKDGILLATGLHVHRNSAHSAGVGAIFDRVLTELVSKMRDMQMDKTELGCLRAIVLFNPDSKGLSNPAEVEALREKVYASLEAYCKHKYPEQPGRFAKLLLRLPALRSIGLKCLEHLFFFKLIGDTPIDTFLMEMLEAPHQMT

Kd [1]: 778 ± 88.8 nM
B1: PXR/RXRα LBD heterotetramer complex of SRC-1 fused PXR LBD with unfused RXRα LBD (complex, human)
chain 1: NEDMPVERILEAELAVEPKTETYVEANMGLNPSSPNDPVTNICQAADKQLFTLVEWAKRIPHFSELPLDDQVILLRAGWNELLIASFSHRSIAVKDGILLATGLHVHRNSAHSAGVGAIFDRVLTELVSKMRDMQMDKTELGCLRAIVLFNPDSKGLSNPAEVEALREKVYASLEAYCKHKYPEQPGRFAKLLLRLPALRSIGLKCLEHLFFFKLIGDTPIDTFLMEMLEAPHQMT
chain 2: SERTGTQPLGVQGLTEEQRMMIRELMDAQMKTFDTTFSHFKNFRLPGVLSSGCELPESLQAPSREEAAKWSQVRKDLCSLKVSLQLRGEDGSVWNYKPPADSGGKEIFSLLPHMADMSTYMFKGIISFAKVISYFRDLPIEDQISLLKGAAFELCQLRFNTVFNAETGTWECGRLSYCLEDTAGGFQQLLLEPMLKFHYMLKKLQLHEEEYVLMQAISLFSPDRPGVLQHRVVDQLQEQFAITLKSYIECNRPQPAHRFLFLKIMAMLTELRSINAQHTQRLLRIQDIHPFATPLMQELFGITGSGGSGGSSHSSLTERHKILHRLLQEGSPS

Kd [1]: 588 ± 29.7 nM
B2: PXR/RXRα LBD heterotetramer complex of unfused PXR LBD with SRC-1-fused RXRα LBD (complex, human)
chain 1: SERTGTQPLGVQGLTEEQRMMIRELMDAQMKTFDTTFSHFKNFRLPGVLSSGCELPESLQAPSREEAAKWSQVRKDLCSLKVSLQLRGEDGSVWNYKPPADSGGKEIFSLLPHMADMSTYMFKGIISFAKVISYFRDLPIEDQISLLKGAAFELCQLRFNTVFNAETGTWECGRLSYCLEDTAGGFQQLLLEPMLKFHYMLKKLQLHEEEYVLMQAISLFSPDRPGVLQHRVVDQLQEQFAITLKSYIECNRPQPAHRFLFLKIMAMLTELRSINAQHTQRLLRIQDIHPFATPLMQELFGITGS
chain 2: NEDMPVERILEAELAVEPKTETYVEANMGLNPSSPNDPVTNICQAADKQLFTLVEWAKRIPHFSELPLDDQVILLRAGWNELLIASFSHRSIAVKDGILLATGLHVHRNSAHSAGVGAIFDRVLTELVSKMRDMQMDKTELGCLRAIVLFNPDSKGLSNPAEVEALREKVYASLEAYCKHKYPEQPGRFAKLLLRLPALRSIGLKCLEHLFFFKLIGDTPIDTFLMEMLEAPHQMTGGSGGSSHSSLTERHKILHRLLQEGSPS

binding result [2]: binds | binding result [3]: binds
Binder: SSHSSLTERHKILHRLLQEGSPS

Binder: B3
Kd [4]: 1180 ± 92.2 nM | Kd [5]: 1560 ± 198 nM

From paper PMC3699901 (Journal of molecular biology, 2013)
